One data set relates to anesthetized rats. Description: Diuresis and natriuresis induced by infused native proUGn in anesthetized rats. Type of data set: in vivo, rat. Here is the method:
(§1) Experiments were performed with 200-250 g male Sprague Dawley rats (Charles River Laboratories, Wilmington, Mass., United States of America). Rat test diets were obtained from a commercial supplier (Harlan Teklad, Madison, Wis., United States of America). For some experiments, anephric animals were prepared by surgical acute ligation of the renal pedicles. As necessary, animals were anesthetized with Nembutal (60 mg/kg body weight ip).
Na, K, and fluid excretion: Na and K concentrations are analyzed on an IF model 943 flame photometer (Instrumentation Laboratory Company, Lexington, Mass., United States of America). Urine is collected from ureteric canulae or by the use of metabolic cages. Urine volume is determined gravimetrically.
Native proUGn is purified from rat small intestine. Animals are sacrificed by anesthetic overdose, and approximately 20 cm of proximal small intestine is removed. The tissue is cut longitudinally, rinsed with saline, and the mucosal layer is isolated by scraping with a microscope slide. Scraped material is snap-frozen on a metal plate chilled to −78.5° C., then homogenized in 50 mM HEPES, pH 7.4, containing protease inhibitor. The homogenate is cleared by centrifugation at 50,000×g, and the supernate is fractionated sequentially by HPLC on a MonoQ anion exchange column and a VYDAC C-18 reverse-phase column. The HPLC chromatogram of this second chromatography step is shown in FIG. 10a, with a Western blot of the individual HPLC fractions shown in the inset, confirming the presence of proUGn. The purified material was dried to remove the HPLC solvents and resuspended in physiological saline. Recovery is measured by quantitative proUGn immunoassay.
Native proUGn is infused for 60 min into a group of 5 anesthetized rats, the standard infusion containing approximately 180-pmol peptide. Given an estimated rat plasma volume of 10 mL, the infusion rate was approximately […]. Blood pressure, urine production, and sodium excretion were monitored for approximately 40 minutes prior to the infusion, during the infusion, and for approximately 50 minutes after the infusion to measure the effect of the proUGn on diuresis and natriuresis. For comparison, a control group of five rats was infused with regular saline, one rat was infused with a solution of proUGn that had been neutralized by incubation with antibodies 6910 and 6912, and one rat was infused with a solution containing STa at 5 μg/kg/hr.

The next data set concerns the target T1, GC-C (Homo sapiens, UniProt P25092).
T1 construct: endogenous in cells; host or cells: T84 cells
The following applies: other reports (Hamra et al. 1996); cited from earlier work.

Data set [1] is described as follows: Kidney clearance and tissue fate of infused or bolus-injected 35S-proUGn. Type of data set: in vivo, rat. As to the method:
as §1
Radioactive proUGn was prepared by coupled in vitro transcription/translation in the presence of ^35S-Cys and ^35S-Met from a cDNA template that encoded full-length proUGn (minus the signal peptide).
A solution containing radioactively-labeled r-proUGn was infused by iv into anesthetized rats for 60 min. The concentration of radioactivity in the plasma and the urine was measured via scintillation counting at timepoints throughout the infusion. […] At the end of the 60 min infusion, tissue samples were collected from the brain, thymus, lung, small intestine, skeletal muscle, spleen, heart, kidney, and liver and assayed for radioactivity by scintillation counting.
To measure the rate of kidney clearance of proUGn, plasma levels of ^35S-proUGn were monitored following bolus injection of the radiolabelled propeptide. Bolus injections (about 10^6 cpm) were given to groups of control (i.e., normal) rats and to anephric rats. At various timepoints after the injection, blood samples were removed and fractionated by HPLC. Radioactivity in each HPLC fraction was measured in a scintillation counter. […] Taken together, the results from these experiments indicate that the kidney appears to be the major route of clearance for proUGn.

Data set [2] is described as follows: HPLC analysis of proUGn metabolites in plasma and urine. The data set is classed as in vivo, rat. As to the method: Unless otherwise stated, HPLC conditions for the detection and identification of proUGn and related peptides are as follows: Vydac 218TP™ C-18 reverse-phase column (Grace Vydac, Hesperica, Calif., United States of America); equilibration of the column with H2O with 0.1% TFA for 25 minutes, followed by a 30 minutes gradient from 0% acetonitrile (with 0.1% TFA) to 50% acetonitrile (with 0.1% TFA), 5 min wash with 100% acetonitrile (0.1% TFA).
Plasma samples were taken 2, 5, and 10 min after bolus injection of ^35S-proUGn (about 10^6 cpm) into the carotid artery (n=2 for each timepoint). Urine was collected for 30 min at the end of a 60 min arterial infusion of ^35S-proUGn (n=7). The cpm/μL in the infused material was approximately 100 times lower than the cpm/μL in the solution used for the bolus injection. Plasma and urine samples were applied to the HPLC column and eluted, with the radioactivity in each fraction measured in a scintillation counter.

[3] abbreviates: steady iv infusion over 60 min, FIG. 8a.

“Also recorded” adds a separate entry of the source.

T1 sequence (P25092 24-1073): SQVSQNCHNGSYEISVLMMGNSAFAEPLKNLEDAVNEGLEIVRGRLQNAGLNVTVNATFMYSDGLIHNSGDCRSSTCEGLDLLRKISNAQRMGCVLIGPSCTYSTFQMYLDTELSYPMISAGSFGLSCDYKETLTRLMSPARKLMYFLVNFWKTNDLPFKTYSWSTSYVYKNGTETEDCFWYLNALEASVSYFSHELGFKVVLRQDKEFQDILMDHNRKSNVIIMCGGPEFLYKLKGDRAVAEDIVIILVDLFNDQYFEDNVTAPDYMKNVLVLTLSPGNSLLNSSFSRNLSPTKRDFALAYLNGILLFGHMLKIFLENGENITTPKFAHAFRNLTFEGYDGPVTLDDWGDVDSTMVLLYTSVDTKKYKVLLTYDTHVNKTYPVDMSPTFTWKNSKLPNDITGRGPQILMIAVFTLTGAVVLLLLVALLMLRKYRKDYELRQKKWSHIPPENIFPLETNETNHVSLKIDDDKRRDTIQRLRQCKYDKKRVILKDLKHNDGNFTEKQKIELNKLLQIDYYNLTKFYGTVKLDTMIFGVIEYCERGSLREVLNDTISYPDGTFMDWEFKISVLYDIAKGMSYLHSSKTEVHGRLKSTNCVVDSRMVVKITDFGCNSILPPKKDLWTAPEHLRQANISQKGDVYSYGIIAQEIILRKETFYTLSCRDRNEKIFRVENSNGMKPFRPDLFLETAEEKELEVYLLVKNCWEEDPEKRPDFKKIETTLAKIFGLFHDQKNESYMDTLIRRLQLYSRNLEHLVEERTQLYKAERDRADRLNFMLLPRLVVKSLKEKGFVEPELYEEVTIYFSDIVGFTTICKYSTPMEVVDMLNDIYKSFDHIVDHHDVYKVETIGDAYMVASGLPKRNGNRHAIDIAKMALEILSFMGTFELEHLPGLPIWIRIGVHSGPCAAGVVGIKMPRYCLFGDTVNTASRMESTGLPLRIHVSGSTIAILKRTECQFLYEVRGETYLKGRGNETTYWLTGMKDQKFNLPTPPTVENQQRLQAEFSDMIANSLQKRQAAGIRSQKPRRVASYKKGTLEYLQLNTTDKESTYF

B1: prouroguanylin (protein, listed as Rattus norvegicus)
chain: VYIKYHGFQVQLESVKKLNELEEKQMSDPQQQKSGLLPDVCYNPALPLDLQPVCASQEAASTFKALRTIATDECELCINVACTGC
notes: propeptide of UGn18
B1: the “sodium excretion following proUGn infusion” value with anesthetized rats (60 min infusion of approximately 180 pmol peptide, after infusion) stood at 3200 nmol/min. In addition, in the data set on anesthetized rats (60 min infusion, FIG. 10c), the sodium excretion result is “mirrored the increase in urine flow rate”. Also, in the data set with anesthetized rats (60 min infusion, anesthetized rats, FIG. 10b), the urine flow result is “increase in urine flow”. Besides, the “onset of the response to proUGn” value with anesthetized rats (after beginning infusion) lay within 20 to 40 min. Besides, the “duration of the response to proUGn” value in the data set on anesthetized rats (after terminating the infusion) is “more than several hours”. Also, the “sodium excretion before proUGn infusion” value with anesthetized rats (baseline of the infused animals) was 60 nmol/min. In addition, the “natriuretic response compared with responses reported in the literature for UGn18” value in the data set on anesthetized rats (comparison with literature UGn18 infusion) is reported as “many times greater”. Besides, the “increase in urine production” value in the data set on anesthetized rats (infusing exogenous proUGn into the bloodstream) is on record as at most 50 fold. Besides, the “activation of GC-C” value with GC-C is given as “inability”.

B2: ^35S-proUGn: proUGn prepared by coupled in vitro transcription/translation in the presence of 35S-Cys and 35S-Met (protein)
chain: B1 chain
For B2, in data set [1] (bolus injection about 10^6 cpm, FIG. 8c), the “clearance from plasma, control versus anephric rats” value was “cleared more quickly in the control animals; also recorded: cleared rapidly from the plasma of a normal animal”. Moreover, the “tissue distribution of radioactivity” value in data set [1] (end of 60 min infusion, brain, thymus, lung, small intestine, skeletal muscle, spleen, heart, kidney, liver, FIG. 8b) is “only the kidney samples contained significant levels of radioactivity; also recorded: specific activity of labeling in the kidney is greater than in any other tissue”. For the same molecule, in data set [1] (setting [3]), the “plasma level of radioactivity” value is given as “remained steady; also recorded: stable plasma level of radioactivity” and the “urine level of radioactivity” value is on record as “increased dramatically”. Further, the “integrity in plasma (HPLC of radiolabelled species)” value in data set [2] (plasma 2, 5, 10 min after bolus injection, FIG. 9a) was “appears to remain intact in plasma”. Besides, the “radioactive species in urine (HPLC)” value in data set [2] (urine collected 30 min at end of 60 min infusion, FIG. 9b) is “at least two, and possibly three, proUGn-related products”.

B3: proguanylin (protein, listed as Rattus norvegicus)
chain: MNAWLLSVLCLLGALAVLVEGVTVQDGDLSFPLESVKQLKHLREVQEPTLMSHKKFALRLPKPVAPELCSQSAFPEALRPLCEKPNAEEILQRLEAIAQDPNTCEICAYAACTGC
notes: propeptide of Gn15
In the case of B3, in the data set with GC-C, the “activation of GC-C” value is “inability”.

(Values after patent US8173596B2, “Prouroguanylin, and synthetic analogs or proteolytic cleavage products derived from it, as therapeutic and diagnostic agents for diseases involving salt and/or fluid homeostasis” (The University of North Carolina at Chapel Hill, priority 2004, dated 2012).)
